± gives the standard deviation of the averaged measurements.

B1: library; a variant is named by its letters at N, in order (parent)
chain: GCUGUCACCGGUGUAUUACCCUAGUGGUCGACCGGUCUGAUGAGUCUNNNNNNAGACGAAACAGC

In data set [1] the parent is B1. As to the kind of experiment: normalized RNA/DNA level with ligand (relative to sTRSVctl = 100) (log10 (% of sTRSVctl)); ligand: hypoxanthine (xanthine aptamer); higher = less ribozyme self-cleavage, higher mRNA level. As to conditions: ligand concentration (+) RNA-Seq: 5 mM, HEK293T, reporter: mCherry (pCS4076), ligand present: yes. In a few lines: (§1)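 Ribozyme switch library plasmids linked to reporters were introduced into HEK293T cells at 4 µg per 6-well well, with ligand, if any, added 1 h before. Total RNA was extracted with EDTA 72 h later, reverse-transcribed, amplified, barcoded and sequenced. RNA level was computed from RNA over DNA reads relative to a spiked-in non-cleaving sequence or the top sequences, then scaled and log-transformed. The top set was 25 sequences, values were ×100 and log10, and the cutoff was ≥100 DNA reads.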

Data set [2] covers variants of B1. As to the kind of experiment: normalized RNA/DNA level without ligand (relative to sTRSVctl = 100) (log10 (% of sTRSVctl)); ligand: hypoxanthine (xanthine aptamer); higher = less ribozyme self-cleavage, higher mRNA level. The note with it: HEK293T, reporter: mCherry (pCS4076), ligand present: no. A digest of the protocol:
as §1

Consider GCUGUCACCGGUGUAUUACCCUAGUGGUCGACCGGUCUGAUGAGUCUGCUCCGAGACGAAACAGC [GCUCCG], for which the “normalized RNA/DNA level with ligand (log10)” value in data set [1] is 1.88 ± 0.12. In addition, the “normalized RNA/DNA level without ligand (log10)” value in data set [2] was 1.38 ± 0.075.

With GCUGUCACCGGUGUAUUACCCUAGUGGUCGACCGGUCUGAUGAGUCUGCUCCAAGACGAAACAGC [GCUCCA], in data set [1], the “normalized RNA/DNA level with ligand (log10)” value came out at 1.936 ± 0.018. The “normalized RNA/DNA level without ligand (log10)” value in data set [2] amounted to 1.81 ± 0.025.

As to GCUGUCACCGGUGUAUUACCCUAGUGGUCGACCGGUCUGAUGAGUCUGCUCCCAGACGAAACAGC [GCUCCC], the “normalized RNA/DNA level with ligand (log10)” value in data set [1] came to 1.93 ± 0.043. For the same variant, the “normalized RNA/DNA level without ligand (log10)” value in data set [2] is 1.84 ± 0.02.

As to GCUGUCACCGGUGUAUUACCCUAGUGGUCGACCGGUCUGAUGAGUCUGCUCCUAGACGAAACAGC [GCUCCU], the “normalized RNA/DNA level with ligand (log10)” value in data set [1] was found to be 2.027 ± 0.006. Further, in data set [2], the “normalized RNA/DNA level without ligand (log10)” value is 1.981 ± 0.015.

Turning to GCUGUCACCGGUGUAUUACCCUAGUGGUCGACCGGUCUGAUGAGUCUUCUCCGAGACGAAACAGC [UCUCCG], the “normalized RNA/DNA level with ligand (log10)” value in data set [1] worked out at 1.85 ± 0.036. In addition, the “normalized RNA/DNA level without ligand (log10)” value in data set [2] is 1.43 ± 0.1.

Turning to GCUGUCACCGGUGUAUUACCCUAGUGGUCGACCGGUCUGAUGAGUCUUCUCCCAGACGAAACAGC [UCUCCC], the “normalized RNA/DNA level with ligand (log10)” value in data set [1] was 1.98 ± 0.14. The “normalized RNA/DNA level without ligand (log10)” value in data set [2] was 1.77 ± 0.022.

For GCUGUCACCGGUGUAUUACCCUAGUGGUCGACCGGUCUGAUGAGUCUUCUCCUAGACGAAACAGC [UCUCCU], in data set [1], the “normalized RNA/DNA level with ligand (log10)” value is 1.99 ± 0.059. Also, the “normalized RNA/DNA level without ligand (log10)” value in data set [2] worked out at 1.87 ± 0.028.

In the case of GCUGUCACCGGUGUAUUACCCUAGUGGUCGACCGGUCUGAUGAGUCUUCUCCAAGACGAAACAGC [UCUCCA], the “normalized RNA/DNA level with ligand (log10)” value in data set [1] amounted to 1.93 ± 0.069. Moreover, in data set [2], the “normalized RNA/DNA level without ligand (log10)” value was 1.77 ± 0.019.

In the case of GCUGUCACCGGUGUAUUACCCUAGUGGUCGACCGGUCUGAUGAGUCUACUCUCAGACGAAACAGC [ACUCUC], the “normalized RNA/DNA level with ligand (log10)” value in data set [1] turned out to be 2.06 ± 0.025. In data set [2], the “normalized RNA/DNA level without ligand (log10)” value stood at 2.014 ± 0.005.

For the variant GCUGUCACCGGUGUAUUACCCUAGUGGUCGACCGGUCUGAUGAGUCUGCUCACAGACGAAACAGC [GCUCAC], the “normalized RNA/DNA level with ligand (log10)” value in data set [1] came out at 1.94 ± 0.08. The “normalized RNA/DNA level without ligand (log10)” value in data set [2] worked out at 1.84 ± 0.053.

For the variant GCUGUCACCGGUGUAUUACCCUAGUGGUCGACCGGUCUGAUGAGUCUGCUCAGAGACGAAACAGC [GCUCAG], the “normalized RNA/DNA level with ligand (log10)” value in data set [1] was determined as 1.86 ± 0.019. The “normalized RNA/DNA level without ligand (log10)” value in data set [2] was 1.31 ± 0.057.

For GCUGUCACCGGUGUAUUACCCUAGUGGUCGACCGGUCUGAUGAGUCUGCUCAUAGACGAAACAGC [GCUCAU], the “normalized RNA/DNA level with ligand (log10)” value in data set [1] was determined as 1.95 ± 0.026. Besides, the “normalized RNA/DNA level without ligand (log10)” value in data set [2] amounted to 1.801 ± 0.018.

Turning to GCUGUCACCGGUGUAUUACCCUAGUGGUCGACCGGUCUGAUGAGUCUACUCGUAGACGAAACAGC [ACUCGU], the “normalized RNA/DNA level with ligand (log10)” value in data set [1] came to 1.95 ± 0.033. Besides, the “normalized RNA/DNA level without ligand (log10)” value in data set [2] turned out to be 1.89 ± 0.025.

As for GCUGUCACCGGUGUAUUACCCUAGUGGUCGACCGGUCUGAUGAGUCUACUCGCAGACGAAACAGC [ACUCGC], in data set [1], the “normalized RNA/DNA level with ligand (log10)” value was found to be 1.99 ± 0.041. Besides, the “normalized RNA/DNA level without ligand (log10)” value in data set [2] stood at 1.93 ± 0.032.

GCUGUCACCGGUGUAUUACCCUAGUGGUCGACCGGUCUGAUGAGUCUUCUCGAAGACGAAACAGC [UCUCGA]: the “normalized RNA/DNA level with ligand (log10)” value in data set [1] came to 1.93 ± 0.057. Besides, the “normalized RNA/DNA level without ligand (log10)” value in data set [2] was determined as 1.832 ± 0.013.

Consider GCUGUCACCGGUGUAUUACCCUAGUGGUCGACCGGUCUGAUGAGUCUUCUCGCAGACGAAACAGC [UCUCGC], for which, in data set [1], the “normalized RNA/DNA level with ligand (log10)” value is 1.99 ± 0.022. Besides, in data set [2], the “normalized RNA/DNA level without ligand (log10)” value came to 1.757 ± 0.0053.

Consider GCUGUCACCGGUGUAUUACCCUAGUGGUCGACCGGUCUGAUGAGUCUUCUCGUAGACGAAACAGC [UCUCGU], for which the “normalized RNA/DNA level with ligand (log10)” value in data set [1] was determined as 1.96 ± 0.053. Further, the “normalized RNA/DNA level without ligand (log10)” value in data set [2] stood at 1.83 ± 0.045.

In the case of GCUGUCACCGGUGUAUUACCCUAGUGGUCGACCGGUCUGAUGAGUCUUCUCGGAGACGAAACAGC [UCUCGG], in data set [1], the “normalized RNA/DNA level with ligand (log10)” value came out at 1.92 ± 0.032. In addition, the “normalized RNA/DNA level without ligand (log10)” value in data set [2] is 1.7302 ± 0.00058.

Regarding GCUGUCACCGGUGUAUUACCCUAGUGGUCGACCGGUCUGAUGAGUCUUCUCACAGACGAAACAGC [UCUCAC], in data set [1], the “normalized RNA/DNA level with ligand (log10)” value amounted to 2 ± 0.055. Besides, the “normalized RNA/DNA level without ligand (log10)” value in data set [2] was 1.77 ± 0.047.

For the variant GCUGUCACCGGUGUAUUACCCUAGUGGUCGACCGGUCUGAUGAGUCUUCUCAUAGACGAAACAGC [UCUCAU], the “normalized RNA/DNA level with ligand (log10)” value in data set [1] was determined as 1.975 ± 0.012. The “normalized RNA/DNA level without ligand (log10)” value in data set [2] worked out at 1.887 ± 0.01.

For the variant GCUGUCACCGGUGUAUUACCCUAGUGGUCGACCGGUCUGAUGAGUCUUCUCAAAGACGAAACAGC [UCUCAA], in data set [1], the “normalized RNA/DNA level with ligand (log10)” value came out at 1.92 ± 0.055. For the same variant, the “normalized RNA/DNA level without ligand (log10)” value in data set [2] was determined as 1.679 ± 0.0047.

For the origin of these results see the supplement of paper PMC6757056.
